Molecular target: T1, Human CD137 ECD (human)
T1 construct: entry includes C-terminal His-tag and biotin acceptor peptide; also called human CD137 extracellular domain; 4-1BB
Experiment: Biacore SPR, vs parent H183/L072

T1 sequence (chain, as listed by the source limits assumed): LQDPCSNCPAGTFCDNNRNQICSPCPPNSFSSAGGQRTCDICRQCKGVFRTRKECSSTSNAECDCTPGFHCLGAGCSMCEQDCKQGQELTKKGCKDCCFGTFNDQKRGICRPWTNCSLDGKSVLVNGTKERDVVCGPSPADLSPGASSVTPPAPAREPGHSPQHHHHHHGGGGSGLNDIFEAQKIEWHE

Row | Binder | fold change of affinity [fold]
1 | H183/L072 VL T31V (antibody, name in Kabat numbering, V domains shown, Dual-Ig) VH: QVQLVESGGGLVQPGRSLRLSCAASGFTFSNAWMHWVRQAPGKGLEWVAQIKDKGNAYAAYYAPSVKGRFTISRDDSKNSIYLQMNSLKTEDTAVYYCHYVHYASASTVLPAFGVDAWGQGTTVTVSS VL: DIVMTQSPLSLPVTPGEPASISCQASQELVHMNRNVYLHWYQQKPGQAPRLLIYKVSNRFPGVPDRFSGSGSGTDFTLKISRVEAEDVGVYYCAQGTSVPFTFGQGTKLEIK | 1
2 | H183/L072 VL T92A (antibody, name in Kabat numbering, V domains shown, Dual-Ig) VH: QVQLVESGGGLVQPGRSLRLSCAASGFTFSNAWMHWVRQAPGKGLEWVAQIKDKGNAYAAYYAPSVKGRFTISRDDSKNSIYLQMNSLKTEDTAVYYCHYVHYASASTVLPAFGVDAWGQGTTVTVSS VL: DIVMTQSPLSLPVTPGEPASISCQASQELVHMNRNTYLHWYQQKPGQAPRLLIYKVSNRFPGVPDRFSGSGSGTDFTLKISRVEAEDVGVYYCAQGASVPFTFGQGTKLEIK | 0.5
3 | H183/L072 VL T92E (antibody, name in Kabat numbering, V domains shown, Dual-Ig) VH: QVQLVESGGGLVQPGRSLRLSCAASGFTFSNAWMHWVRQAPGKGLEWVAQIKDKGNAYAAYYAPSVKGRFTISRDDSKNSIYLQMNSLKTEDTAVYYCHYVHYASASTVLPAFGVDAWGQGTTVTVSS VL: DIVMTQSPLSLPVTPGEPASISCQASQELVHMNRNTYLHWYQQKPGQAPRLLIYKVSNRFPGVPDRFSGSGSGTDFTLKISRVEAEDVGVYYCAQGESVPFTFGQGTKLEIK | 0
4 | H183/L072 VL T92I (antibody, name in Kabat numbering, V domains shown, Dual-Ig) VH: QVQLVESGGGLVQPGRSLRLSCAASGFTFSNAWMHWVRQAPGKGLEWVAQIKDKGNAYAAYYAPSVKGRFTISRDDSKNSIYLQMNSLKTEDTAVYYCHYVHYASASTVLPAFGVDAWGQGTTVTVSS VL: DIVMTQSPLSLPVTPGEPASISCQASQELVHMNRNTYLHWYQQKPGQAPRLLIYKVSNRFPGVPDRFSGSGSGTDFTLKISRVEAEDVGVYYCAQGISVPFTFGQGTKLEIK | 0.1
5 | H183/L072 VL T92N (antibody, name in Kabat numbering, V domains shown, Dual-Ig) VH: QVQLVESGGGLVQPGRSLRLSCAASGFTFSNAWMHWVRQAPGKGLEWVAQIKDKGNAYAAYYAPSVKGRFTISRDDSKNSIYLQMNSLKTEDTAVYYCHYVHYASASTVLPAFGVDAWGQGTTVTVSS VL: DIVMTQSPLSLPVTPGEPASISCQASQELVHMNRNTYLHWYQQKPGQAPRLLIYKVSNRFPGVPDRFSGSGSGTDFTLKISRVEAEDVGVYYCAQGNSVPFTFGQGTKLEIK | 0
6 | H183/L072 VL T92W (antibody, name in Kabat numbering, V domains shown, Dual-Ig) VH: QVQLVESGGGLVQPGRSLRLSCAASGFTFSNAWMHWVRQAPGKGLEWVAQIKDKGNAYAAYYAPSVKGRFTISRDDSKNSIYLQMNSLKTEDTAVYYCHYVHYASASTVLPAFGVDAWGQGTTVTVSS VL: DIVMTQSPLSLPVTPGEPASISCQASQELVHMNRNTYLHWYQQKPGQAPRLLIYKVSNRFPGVPDRFSGSGSGTDFTLKISRVEAEDVGVYYCAQGWSVPFTFGQGTKLEIK | 0
7 | H183/L072 VL T31W (antibody, name in Kabat numbering, V domains shown, Dual-Ig) VH: QVQLVESGGGLVQPGRSLRLSCAASGFTFSNAWMHWVRQAPGKGLEWVAQIKDKGNAYAAYYAPSVKGRFTISRDDSKNSIYLQMNSLKTEDTAVYYCHYVHYASASTVLPAFGVDAWGQGTTVTVSS VL: DIVMTQSPLSLPVTPGEPASISCQASQELVHMNRNWYLHWYQQKPGQAPRLLIYKVSNRFPGVPDRFSGSGSGTDFTLKISRVEAEDVGVYYCAQGTSVPFTFGQGTKLEIK | 0.1
8 | H183/L072 VL T92F (antibody, name in Kabat numbering, V domains shown, Dual-Ig) VH: QVQLVESGGGLVQPGRSLRLSCAASGFTFSNAWMHWVRQAPGKGLEWVAQIKDKGNAYAAYYAPSVKGRFTISRDDSKNSIYLQMNSLKTEDTAVYYCHYVHYASASTVLPAFGVDAWGQGTTVTVSS VL: DIVMTQSPLSLPVTPGEPASISCQASQELVHMNRNTYLHWYQQKPGQAPRLLIYKVSNRFPGVPDRFSGSGSGTDFTLKISRVEAEDVGVYYCAQGFSVPFTFGQGTKLEIK | 0
9 | H183/L072 VL T92L (antibody, name in Kabat numbering, V domains shown, Dual-Ig) VH: QVQLVESGGGLVQPGRSLRLSCAASGFTFSNAWMHWVRQAPGKGLEWVAQIKDKGNAYAAYYAPSVKGRFTISRDDSKNSIYLQMNSLKTEDTAVYYCHYVHYASASTVLPAFGVDAWGQGTTVTVSS VL: DIVMTQSPLSLPVTPGEPASISCQASQELVHMNRNTYLHWYQQKPGQAPRLLIYKVSNRFPGVPDRFSGSGSGTDFTLKISRVEAEDVGVYYCAQGLSVPFTFGQGTKLEIK | 0.2
10 | H183/L072 VL T92P (antibody, name in Kabat numbering, V domains shown, Dual-Ig) VH: QVQLVESGGGLVQPGRSLRLSCAASGFTFSNAWMHWVRQAPGKGLEWVAQIKDKGNAYAAYYAPSVKGRFTISRDDSKNSIYLQMNSLKTEDTAVYYCHYVHYASASTVLPAFGVDAWGQGTTVTVSS VL: DIVMTQSPLSLPVTPGEPASISCQASQELVHMNRNTYLHWYQQKPGQAPRLLIYKVSNRFPGVPDRFSGSGSGTDFTLKISRVEAEDVGVYYCAQGPSVPFTFGQGTKLEIK | 0
11 | H183/L072 VL T92Q (antibody, name in Kabat numbering, V domains shown, Dual-Ig) VH: QVQLVESGGGLVQPGRSLRLSCAASGFTFSNAWMHWVRQAPGKGLEWVAQIKDKGNAYAAYYAPSVKGRFTISRDDSKNSIYLQMNSLKTEDTAVYYCHYVHYASASTVLPAFGVDAWGQGTTVTVSS VL: DIVMTQSPLSLPVTPGEPASISCQASQELVHMNRNTYLHWYQQKPGQAPRLLIYKVSNRFPGVPDRFSGSGSGTDFTLKISRVEAEDVGVYYCAQGQSVPFTFGQGTKLEIK | 0
12 | H183/L072 VL T92M (antibody, name in Kabat numbering, V domains shown, Dual-Ig) VH: QVQLVESGGGLVQPGRSLRLSCAASGFTFSNAWMHWVRQAPGKGLEWVAQIKDKGNAYAAYYAPSVKGRFTISRDDSKNSIYLQMNSLKTEDTAVYYCHYVHYASASTVLPAFGVDAWGQGTTVTVSS VL: DIVMTQSPLSLPVTPGEPASISCQASQELVHMNRNTYLHWYQQKPGQAPRLLIYKVSNRFPGVPDRFSGSGSGTDFTLKISRVEAEDVGVYYCAQGMSVPFTFGQGTKLEIK | 0.4
13 | H183/L072 VL T92S (antibody, name in Kabat numbering, V domains shown, Dual-Ig) VH: QVQLVESGGGLVQPGRSLRLSCAASGFTFSNAWMHWVRQAPGKGLEWVAQIKDKGNAYAAYYAPSVKGRFTISRDDSKNSIYLQMNSLKTEDTAVYYCHYVHYASASTVLPAFGVDAWGQGTTVTVSS VL: DIVMTQSPLSLPVTPGEPASISCQASQELVHMNRNTYLHWYQQKPGQAPRLLIYKVSNRFPGVPDRFSGSGSGTDFTLKISRVEAEDVGVYYCAQGSSVPFTFGQGTKLEIK | 0
14 | H183/L072 VL T92V (antibody, name in Kabat numbering, V domains shown, Dual-Ig) VH: QVQLVESGGGLVQPGRSLRLSCAASGFTFSNAWMHWVRQAPGKGLEWVAQIKDKGNAYAAYYAPSVKGRFTISRDDSKNSIYLQMNSLKTEDTAVYYCHYVHYASASTVLPAFGVDAWGQGTTVTVSS VL: DIVMTQSPLSLPVTPGEPASISCQASQELVHMNRNTYLHWYQQKPGQAPRLLIYKVSNRFPGVPDRFSGSGSGTDFTLKISRVEAEDVGVYYCAQGVSVPFTFGQGTKLEIK | 0.3
15 | H183/L072 VL T31Y (antibody, name in Kabat numbering, V domains shown, Dual-Ig) VH: QVQLVESGGGLVQPGRSLRLSCAASGFTFSNAWMHWVRQAPGKGLEWVAQIKDKGNAYAAYYAPSVKGRFTISRDDSKNSIYLQMNSLKTEDTAVYYCHYVHYASASTVLPAFGVDAWGQGTTVTVSS VL: DIVMTQSPLSLPVTPGEPASISCQASQELVHMNRNYYLHWYQQKPGQAPRLLIYKVSNRFPGVPDRFSGSGSGTDFTLKISRVEAEDVGVYYCAQGTSVPFTFGQGTKLEIK | 0.1
16 | H183/L072 VL T92R (antibody, name in Kabat numbering, V domains shown, Dual-Ig) VH: QVQLVESGGGLVQPGRSLRLSCAASGFTFSNAWMHWVRQAPGKGLEWVAQIKDKGNAYAAYYAPSVKGRFTISRDDSKNSIYLQMNSLKTEDTAVYYCHYVHYASASTVLPAFGVDAWGQGTTVTVSS VL: DIVMTQSPLSLPVTPGEPASISCQASQELVHMNRNTYLHWYQQKPGQAPRLLIYKVSNRFPGVPDRFSGSGSGTDFTLKISRVEAEDVGVYYCAQGRSVPFTFGQGTKLEIK | 0
17 | H183/L072 VL T92K (antibody, name in Kabat numbering, V domains shown, Dual-Ig) VH: QVQLVESGGGLVQPGRSLRLSCAASGFTFSNAWMHWVRQAPGKGLEWVAQIKDKGNAYAAYYAPSVKGRFTISRDDSKNSIYLQMNSLKTEDTAVYYCHYVHYASASTVLPAFGVDAWGQGTTVTVSS VL: DIVMTQSPLSLPVTPGEPASISCQASQELVHMNRNTYLHWYQQKPGQAPRLLIYKVSNRFPGVPDRFSGSGSGTDFTLKISRVEAEDVGVYYCAQGKSVPFTFGQGTKLEIK | 0
18 | H183/L072 VL T92H (antibody, name in Kabat numbering, V domains shown, Dual-Ig) VH: QVQLVESGGGLVQPGRSLRLSCAASGFTFSNAWMHWVRQAPGKGLEWVAQIKDKGNAYAAYYAPSVKGRFTISRDDSKNSIYLQMNSLKTEDTAVYYCHYVHYASASTVLPAFGVDAWGQGTTVTVSS VL: DIVMTQSPLSLPVTPGEPASISCQASQELVHMNRNTYLHWYQQKPGQAPRLLIYKVSNRFPGVPDRFSGSGSGTDFTLKISRVEAEDVGVYYCAQGHSVPFTFGQGTKLEIK | 0
19 | H183/L072 VL T92D (antibody, name in Kabat numbering, V domains shown, Dual-Ig) VH: QVQLVESGGGLVQPGRSLRLSCAASGFTFSNAWMHWVRQAPGKGLEWVAQIKDKGNAYAAYYAPSVKGRFTISRDDSKNSIYLQMNSLKTEDTAVYYCHYVHYASASTVLPAFGVDAWGQGTTVTVSS VL: DIVMTQSPLSLPVTPGEPASISCQASQELVHMNRNTYLHWYQQKPGQAPRLLIYKVSNRFPGVPDRFSGSGSGTDFTLKISRVEAEDVGVYYCAQGDSVPFTFGQGTKLEIK | 0
20 | H183/L072 VL T92G (antibody, name in Kabat numbering, V domains shown, Dual-Ig) VH: QVQLVESGGGLVQPGRSLRLSCAASGFTFSNAWMHWVRQAPGKGLEWVAQIKDKGNAYAAYYAPSVKGRFTISRDDSKNSIYLQMNSLKTEDTAVYYCHYVHYASASTVLPAFGVDAWGQGTTVTVSS VL: DIVMTQSPLSLPVTPGEPASISCQASQELVHMNRNTYLHWYQQKPGQAPRLLIYKVSNRFPGVPDRFSGSGSGTDFTLKISRVEAEDVGVYYCAQGGSVPFTFGQGTKLEIK | 0.4
